Laboratory results from patent US20250136687A1 (SHANDONG SIMCERE BIOPHARMACEUTICAL, published 2025).
Where a chain is given by its changes, count along the chain named. Where two headings read alike, the source gives them in different places.

T1: monkey CD3ε protein (monkey, UniProt Q95LI5 22-117, limits assumed)
T1 sequence (looked up): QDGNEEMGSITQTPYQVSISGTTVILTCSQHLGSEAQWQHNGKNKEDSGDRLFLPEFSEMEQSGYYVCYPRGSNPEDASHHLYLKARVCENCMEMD

B1: 5-7.13 human-murine chimeric antibody (antibody, human IgG1, kappa, V domains shown)
VH: QVQLQQPGTELVKPGASVKLSCKASGYTFTSYWVHWVKQRPGQGLEWIGNINPSDGVTNYNEKFKSRATLTVDKSSSTAYMQLSSLTSEDSAVYYCTRDAYGQYYFDDWGQGTTLTVSS
VL: DIVMSQSPSSLVVSAGEKVTMSCKSSQSLLNSRTRKNYLAWYQQKPGQSPKLLIYWASVRDSGVPDRFTGSGSGTDFTLTISNVQAEDLAVYYCIQSYYLRTFGGGTILEIKR
notes: Human IgG1 chimera
B2: 5-40.21 human-murine chimeric antibody (antibody, human IgG1, kappa, V domains shown)
VH: QVQLQQPGSELVRPGASVKLSCKASGYTFTSYWMHWVKQRPGQGLEWIGNTYPGSGSTNYDEKFKSKATLTVDSSSSTAYMQLSSLTSEDSAVYYCTRDRYGVYYFDYWGQGTTLTVSS
VL: B1 VL with V12A, V59T, D61E, T69S, N83S, I95T, Y99N, I108K
notes: Human IgG1 chimera
B3: 6-44.5 human-murine chimeric antibody (antibody, human IgG1, kappa, V domains shown)
VH: EVQLQQSGPELVKPGASVKMSCKASGHTFTSHIMHWVKQKPGQGLEWIGYINPNNDRTEYSEKFKGKATLTSDKSSSTAYMELSSLTSEDSAVYYCAGEAYYSNSLYAMDYWGQGTSVTVSS
VL: B1 VL with V12A, L30F, K51E, V59T, D61E, D66V, N83S, I95K, I108K, I111V
notes: Human IgG1 chimera
B4: 5-40.21-H3-L1 humanized antibody (antibody, human IgG1, kappa, V domains shown)
VH: EVQLVQSGAEVKKPGASVKVSCKASGYTFTSYWMHWVRQAPGQGLEWMGNTYPGSGSTNYDEKFKSRVTITVDSSASTAYMELSSLRSEDTAVYYCTRDRYGVYYFDYWGQGTTVTVSS
VL: DIVMTQSPDSLAVSLGERATINCKSSQSLLNSRTRKNYLAWYQQKPGQSPKLLIYWASTRESGVPDRFSGSGSGTDFTLTISSLQAEDVAVYYCTQSYNLRTFGGGTKVEIKR
B5: 1-22.6-1-H2a-L2a humanized antibody (antibody, human IgG1, kappa, V domains shown)
VH: EVQLVQSGSELKKPGASVKVSCKTSGYTFTSYGMSWVRQAPGQGLEWMGWINTYSGVPTYAQDFKGRFVFSLDTSVSTAYLQISSLKAEDTAVYYCARLKNNPFVWGQGTTVTVSS
VL: DIVMTQSPDSLAVSLGERATINCRSSQLILHSSGNTYLEWYQQKPGQSPKLLIYKVSNRFSGVPDRFSGSGSGTDFTLTISSLQAEDVAVYYCFQGSHFPWTFGGGTKVEIKR
notes: also called 1-22.6-H2a-L2a

Columns and labels:
[1] = molecular target: T2, human CD3 on the cell surface (Jurkat cells, expanded human T cells, Jurkat-Lucia NFAT cells, human PBMC) (human, UniProt P07766 23-207; P04234 22-171; P09693 23-182); assay: FACS, expanded human T cells
T2 construct: whole, on cells; Endogenous CD3 within the TCR-CD3 complex on cells (also zeta chains and TCR); the cell type is named under assay
T2 sequence (P07766 23-207, chain 1 of 3): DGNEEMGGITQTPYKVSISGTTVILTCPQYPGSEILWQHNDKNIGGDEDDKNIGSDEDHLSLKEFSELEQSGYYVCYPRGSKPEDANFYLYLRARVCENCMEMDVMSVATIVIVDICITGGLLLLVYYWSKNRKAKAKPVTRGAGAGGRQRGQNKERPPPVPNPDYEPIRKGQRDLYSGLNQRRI
T2 sequence (P04234 22-171, chain 2 of 3): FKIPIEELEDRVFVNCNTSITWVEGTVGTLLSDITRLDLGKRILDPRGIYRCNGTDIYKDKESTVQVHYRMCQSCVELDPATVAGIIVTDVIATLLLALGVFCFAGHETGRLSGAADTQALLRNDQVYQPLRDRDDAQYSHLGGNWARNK
T2 sequence (P09693 23-182, chain 3 of 3): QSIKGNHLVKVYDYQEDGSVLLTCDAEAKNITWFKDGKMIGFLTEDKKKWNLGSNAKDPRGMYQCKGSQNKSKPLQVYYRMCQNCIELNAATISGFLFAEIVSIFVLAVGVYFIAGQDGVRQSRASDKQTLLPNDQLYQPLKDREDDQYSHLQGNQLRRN
Protocol: (§1) The binding of the chimeric antibodies to CD3 on the cell surface was analyzed by detecting the binding of the antibodies to Jurkat cells and human T cells. Suspension cells Jurkat cells were scale-up cultured in T-75 cell culture flasks to the logarithmic growth phase, the supernatant of the medium was discarded by centrifugation, and the cell pellet was washed 2 times with PBS for later use. The expanded human T cells were washed 2 times with PBS for later use. After counting the cells in the previous step, the cell pellet was resuspended with [PBS+2% (w/w) BSA] blocking solution to 4×10⁶ cells/ml, and added to a 96-well FACS reaction plate at 50 μl/well, and then the chimeric antibody to be tested was added at 50 μl/well, and incubated at 4° C. for 1 h. The cells were centrifuged and washed 3 times with a PBS buffer. […] The cells were centrifuged and washed 5 times with PBS, and FACS (FACS Canto™, purchased from BD Company) was used for detection and result analysis. Data analysis was performed by software (CellQuest) to obtain the mean fluorescence […] (MFI) of the cells. And then software (GraphPad Prism8) was used for analysis, data fitting, and EC50 value calculation. The same method was used to simultaneously detect the binding of the chimeric antibodies to endogenous CD3 negative cells MOLT4 cells.

[2] = molecular target: T2, human CD3 on the cell surface (Jurkat …); assay: FACS, Jurkat cells
Protocol: as §1

[3] = molecular target: T2, human CD3 on the cell surface (Jurkat …); assay: cell-based or functional assay
[4] = molecular target: T3, cynomolgus monkey CD3 on the surface of expanded monkey T cells (cynomolgus monkey, UniProt Q95LI5 22-198; Q95LI8 22-171; Q95LI7 23-181); assay: FACS, expanded monkey T cells
T3 construct: whole, on cells; Endogenous CD3 within the TCR-CD3 complex on T cells expanded from cynomolgus monkey PBMC
T3 sequence (Q95LI5 22-198, chain 1 of 3): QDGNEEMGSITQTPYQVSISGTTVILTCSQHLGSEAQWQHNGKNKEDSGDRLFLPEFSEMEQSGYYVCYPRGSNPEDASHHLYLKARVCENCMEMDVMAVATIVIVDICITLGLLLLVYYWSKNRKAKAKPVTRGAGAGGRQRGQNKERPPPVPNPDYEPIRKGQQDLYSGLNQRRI
T3 sequence (Q95LI8 22-171, chain 2 of 3): as the sequence (P04234 22-171, chain 2 of 3) above, with I5V, N15K, I20V, S32T, D33N, I34N, T64A, S74N, V83L, H141R counted along it
T3 sequence (Q95LI7 23-181, chain 3 of 3): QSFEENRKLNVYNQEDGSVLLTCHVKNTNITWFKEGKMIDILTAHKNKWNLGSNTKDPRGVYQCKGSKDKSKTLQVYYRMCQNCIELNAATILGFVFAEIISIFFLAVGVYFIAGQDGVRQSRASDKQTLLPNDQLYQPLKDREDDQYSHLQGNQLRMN
Protocol: as §1
FACS detection and data analysis were performed on the cryopreserved monkey T cells of Example 2.4 according to the method in Example 5.1.

[5] = molecular target: T4, recombinant human CD3ε-ECD His protein (human, UniProt P07766 23-126); assay: SPR (Biacore), antibody captured on Protein A chip
T4 construct: extracellular domain; also called human CD3ε-His; CD3ε antigen protein; not shown: His tag
T4 sequence (P07766 23-126): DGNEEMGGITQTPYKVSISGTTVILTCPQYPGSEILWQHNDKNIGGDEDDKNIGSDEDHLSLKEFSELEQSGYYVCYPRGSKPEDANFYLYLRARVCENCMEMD
Protocol: Sample buffer and running buffer were HBS-EP+(10 mM HEPES, 150 mM NaCl, 3 mM EDTA, 0.05% surfactant P20) (GE Healthcare; BR-1006-69). The flow-through cell was set to 25° C. The sample block was set to 16° C. Both were pretreated with the running buffer. In each cycle, the antibody to be detected was first captured with a Protein A chip, and then a single concentration of CD3ε antigen protein (purchased from Sino Biological, Inc. (China), catalog number: 10977-H08H) was injected. The binding and dissociation processes of the antibody and the antigen protein were recorded, and finally a glycine solution (pH 1.5, GE Healthcare; BR-1003-54) was used to complete chip regeneration. The binding was measured by injecting different concentrations of recombinant human CD3ε-ECD His proteins in a solution for 240 s with a flow rate of 30 μL/min. The concentration started from 200 nM (see the detailed results for the actual concentration in the test) and was diluted at 1:1, making a total of 5 concentrations. The dissociation phase was monitored for up to 600 s and was triggered by switching from sample solution to running buffer. The surface was regenerated by washing with a 10 mM glycine solution (pH 1.5) for 30 s at a flow rate of 30 μL/min. Bulk refractive index difference was corrected by subtracting the response obtained from the goat anti-human Fc surface. Blank injection was also subtracted (=double reference). For calculation of apparent KD and other kinetic parameters, Langmuir 1:1 model was used.

[6] = molecular target: T3, cynomolgus monkey CD3 on the surface of …; assay: FACS, expanded monkey T cells; remark: listed apart in the source
Protocol: as §1
The expanded monkey T cells were collected, and FACS detection and data analysis were performed according to the method in Example 5.1.

[7] = molecular target: T2, human CD3 on the cell surface (Jurkat …); assay: FACS, expanded human T cells; remark: listed apart in the source
Protocol: as §1
The expanded human PBMC cells were collected, and FACS detection and data analysis were performed according to the method in Example 5.1.

human CD3ε/δ-His [8] = molecular target: T5, human CD3ε/δ-His (human, UniProt P07766 23-126; P04234 22-105); assay: ELISA, coated antigen
T5 construct: Bought recombinant heterodimer with His tag; also called human CD3ε/δ protein
T5 sequence (P07766 23-126, stated change not applied, form in doubt, chain 1 of 2): as the sequence (P07766 23-126) above
T5 sequence (P04234 22-105, stated change not applied, form in doubt, chain 2 of 2): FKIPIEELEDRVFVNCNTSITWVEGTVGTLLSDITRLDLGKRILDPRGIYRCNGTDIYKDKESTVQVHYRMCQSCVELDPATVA
Protocol: (§2) To detect the binding activity of the humanized antibodies to CD3 protein, CD3 protein was diluted with PBS to the final concentration of […], then added to a 96-well ELISA plate at 50 μL/well, and the plate was sealed with a plastic film, and incubated overnight at 4° C. On the next day, the plate was washed 2 times with PBS, and a blocking solution [PBS+2% (v/v) BSA] was added for blocking at room temperature for 2 h. The blocking solution was poured off, and the antibody (initial concentration of 100 nM, and gradient dilution at 1:10) or a negative control antibody was added at 50 µl/well. After incubation at 37° C. for 2 h, the plate was washed 3 times with PBS. […] TMB substrate was added at 50 μl/well, and incubated at room temperature for 10 min, and then a stop solution (1.0 N HCl) was added at 50 μl/well. The OD450 nm values were read by an ELISA microplate reader (Multimode Plate Reader, EnSight, purchased from Perkin Elmer).

[9] = molecular target: T4, recombinant human CD3ε-ECD His protein; assay: ELISA, coated antigen
Protocol: as §2

monkey CD3ε protein = molecular target: T1, monkey CD3ε protein; assay: ELISA, coated antigen
Protocol: as §2
(§3) To detect the binding activity of the humanized antibodies to monkey CD3 protein, CD3 protein was diluted with PBS to the final concentration of […], and then added to a 96-well ELISA plate at 50 μl/well.

monkey CD3ε/δ-His = molecular target: T6, monkey CD3ε/δ-His (monkey, UniProt Q95LI5 22-117; Q95LI8 22-105); assay: ELISA, coated antigen
T6 construct: Bought recombinant heterodimer with His tag
T6 sequence (Q95LI8 22-105, stated change not applied, form in doubt, chain 2 of 2, one chain of several): as the sequence (P04234 22-105, stated change not applied, form in doubt, chain 2 of 2) above, with I5V, N15K, I20V, S32T, D33N, I34N, T64A, S74N, V83L counted along it
Protocol: as §2, §3

human CD3ε/δ-His [10] = molecular target: T5, human CD3ε/δ-His; assay: SPR, antibody captured on Protein A chip
Protocol: (§4) Running buffer was HBS-EP+(10 mM HEPES, 150 mM NaCl, 3 mM EDTA, 0.05% surfactant P20) (GE Healthcare; BR-1006-69). The flow-through cell was set to 25° C. The sample block was set to 16° C. Both were pretreated with the running buffer. In each cycle, an antibody to be detected was first captured with a Protein A chip, and then a single concentration of CD3ε antigen protein was injected. The binding and dissociation processes of the antibody and the antigen protein were recorded, and finally Glycine pH 1.5 (GE Healthcare; BR-1003-54) was used to complete chip regeneration. The binding was measured by injecting different concentrations of recombinant human CD3ε proteins in a solution for 240 s with a flow rate of 30 μL/min. The concentration started from 200 nM (see the detailed results for the actual concentration in the test) and was diluted at 1:1, making a total of 5 concentrations. The dissociation phase was monitored for up to 600 s and was triggered by switching from sample solution to running buffer. The surface was regenerated by washing with a 10 mM glycine solution (pH 1.5) for 30 s at a flow rate of 30 μL/min. Bulk refractive index difference was corrected by subtracting the response obtained from the goat anti-human Fc surface, and the blank injection was subtracted at the same time (=double reference). For calculation of apparent KD value and other kinetic parameters, Langmuir 1:1 model was used.

[11] = molecular target: T4, recombinant human CD3ε-ECD His protein; assay: SPR, antibody captured on Protein A chip
Protocol: as §4

Binder	EC50 [1] [nM]	MFI_Max [1] [MFI]	EC50 [2] [nM]	MFI_Max [2] [MFI]	EC50 (nM), luciferase reporter, Jurkat-Lucia NFAT cells [3] [nM]	Maximum response value (RLU) [3] [RLU]	EC50 [4] [nM]	MFI_Max [4] [MFI]	Kd [5] [nM]	koff [5] [s⁻¹]	kon [5] [M⁻¹ s⁻¹]	EC50 [6] [nM]	max_MFI [6] [MFI]	EC50 [7] [nM]	max_MFI [7] [MFI]	EC50 (human CD3ε/δ-His [8]) [nM]	max-OD450 (human CD3ε/δ-His [8]) [OD450]	EC50 [9] [nM]	max-OD450 [9] [OD450]	EC50 (monkey CD3ε protein) [nM]	further results
B1	0.1	15900	0.06	32200	0.7	55400	0.09	26500	0.345	0.00027	785000	–	–	–	–	–	–	–	–	–	–
B2	0.99	11400	0.44	26700	4.79	46200	1.09	24400	0.553	0.000379	686000	–	–	–	–	–	–	–	–	–	–
B3	0.62	13300	0.15	31700	1.84	33600	0.42	27100	0.445	0.000259	581000	–	–	–	–	–	–	–	–	–	–
B4	–	–	–	–	–	–	–	–	–	–	–	0.73	17800	1.65	18000	0.28	3.15	0.13	1.53	0.000467	max-OD450 (monkey CD3ε protein): 2.84 OD450; EC50 (monkey CD3ε/δ-His): 0.00456 nM; max-OD450 (monkey CD3ε/δ-His): 3.16 OD450; Kd (human CD3ε/δ-His [10]): 115 nM; koff (human CD3ε/δ-His [10]): 0.0184 s⁻¹; kon (human CD3ε/δ-His [10]): 161000 M⁻¹ s⁻¹; Kd [11]: 1.87 nM; koff [11]: 0.000485 s⁻¹; kon [11]: 260000 M⁻¹ s⁻¹
B5	–	–	–	–	–	–	–	–	–	–	–	6.92	12300	11	15900	0.45	3.29	0.1	1.49	0.000106	max-OD450 (monkey CD3ε protein): 3.09 OD450; EC50 (monkey CD3ε/δ-His): 0.0124 nM; max-OD450 (monkey CD3ε/δ-His): 3.23 OD450; Kd (human CD3ε/δ-His [10]): 113 nM; koff (human CD3ε/δ-His [10]): 0.0134 s⁻¹; kon (human CD3ε/δ-His [10]): 119000 M⁻¹ s⁻¹; Kd [11]: 3.64 nM; koff [11]: 0.000305 s⁻¹; kon [11]: 83600 M⁻¹ s⁻¹
